The labels stand for the following.
B1: WDR41 (parent)
chain: HVGELIIWDALDWTMQAYERNFWD

94 variants from the supplement of paper PMC10567573 can be followed below.
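Note: lentivirally expressed fusions sorted by FACS into six bins by GFP to DsRed ratio, PSI derived from sequencing read proportions per bin multiplied by bin number.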

The series covers variants of B1. Kind of series: protein stability index of a GFP-peptide fusion (GPS, HEK-293T) (PSI 1-6); higher = more stable. Particulars: c terminus: a fixed tail appended.
Consider HVGELIIVDALDWTMQAYERNFWD [W8V], for which the protein stability index stood at 2.29.

As for HVGELIIADALDWTMQAYERNFWD [W8A], the protein stability index worked out at 2.8.

Consider HVGELIIEDALDWTMQAYERNFWD [W8E], for which the protein stability index was 2.13.

For HVGELIILDALDWTMQAYERNFWD [W8L], the protein stability index was 3.77.

For HVGELIIKDALDWTMQAYERNFWD [W8K], the protein stability index was determined as 1.67.

Consider HVGELIIHDALDWTMQAYERNFWD [W8H], for which the protein stability index came to 1.61.

In the case of HVGELIINDALDWTMQAYERNFWD [W8N], the protein stability index was found to be 1.3.

As for HVGELIICDALDWTMQAYERNFWD [W8C], the protein stability index came out at 1.88.

As for HVGELIIGDALDWTMQAYERNFWD [W8G], the protein stability index was 2.89.

Take HVGELIIDDALDWTMQAYERNFWD [W8D]: the protein stability index was determined as 2.74.

Turning to HVGELIIWDALDWTMQAYERNFKD [W23K], the protein stability index came out at 1.39.

Regarding HVGELIIWDALDWTMQAYERNFDD [W23D], the protein stability index was 1.89.

On to HVGELIIWDALDWTMQAYERNFID [W23I], for which the protein stability index was determined as 2.83.

Turning to HVGELIIWDALDWTMQAYERNFCD [W23C], the protein stability index worked out at 1.71.

Turning to HVGELIIWDALDWTMQAYARNFWD [E19A], the protein stability index was 1.64.

Consider HVGELIIWDALDWTMQAYPRNFWD [E19P], for which the protein stability index stood at 1.72.

Take HVGELIIWDALDWTMQAYNRNFWD [E19N]: the protein stability index amounted to 1.91.

As for HVGELIIWDALDWTMQAYIRNFWD [E19I], the protein stability index was 2.09.

Consider HVGELIIWDALDWTMQAYERNFWK [D24K], for which the protein stability index worked out at 1.4.

For the variant HVGELIIWDALDWTMQAYERNFWE [D24E], the protein stability index worked out at 3.24.

Consider HVVELIIWDALDWTMQAYERNFWD [G3V], for which the protein stability index was determined as 4.45.

For HVDELIIWDALDWTMQAYERNFWD [G3D], the protein stability index came out at 2.35.

For HVKELIIWDALDWTMQAYERNFWD [G3K], the protein stability index is 2.06.

Take HVYELIIWDALDWTMQAYERNFWD [G3Y]: the protein stability index is 2.42.

For HVQELIIWDALDWTMQAYERNFWD [G3Q], the protein stability index was 2.54.

For the variant HVNELIIWDALDWTMQAYERNFWD [G3N], the protein stability index came to 1.89.

For HVEELIIWDALDWTMQAYERNFWD [G3E], the protein stability index stood at 1.87.

Regarding HVRELIIWDALDWTMQAYERNFWD [G3R], the protein stability index is 1.87.

With HVGELIIWDALDWTMQAYEREFWD [N21E], the protein stability index amounted to 2.14.

With HVGELIIWDALDWTMQAYERLFWD [N21L], the protein stability index amounted to 3.

Regarding HVGELIIWDALDWTMQAYERQFWD [N21Q], the protein stability index came out at 2.87.

With HVGELIIWDALDWTMQAYERTFWD [N21T], the protein stability index stood at 2.15.

Regarding HHGELIIWDALDWTMQAYERNFWD [V2H], the protein stability index came out at 2.44.

In the case of HIGELIIWDALDWTMQAYERNFWD [V2I], the protein stability index worked out at 2.08.

HMGELIIWDALDWTMQAYERNFWD [V2M]: the protein stability index was 2.59.

Turning to HEGELIIWDALDWTMQAYERNFWD [V2E], the protein stability index amounted to 1.51.

As for HCGELIIWDALDWTMQAYERNFWD [V2C], the protein stability index was determined as 1.97.

On to HDGELIIWDALDWTMQAYERNFWD [V2D], for which the protein stability index stood at 2.01.

In the case of HNGELIIWDALDWTMQAYERNFWD [V2N], the protein stability index turned out to be 1.48.

Consider HVGELIIWFALDWTMQAYERNFWD [D9F], for which the protein stability index stood at 2.57.

Consider HVGELIIWCALDWTMQAYERNFWD [D9C], for which the protein stability index turned out to be 2.29.

Take HVGELIIWKALDWTMQAYERNFWD [D9K]: the protein stability index is 2.07.

For the variant HVGELIIWPALDWTMQAYERNFWD [D9P], the protein stability index was 3.61.

Consider HVGELIIWWALDWTMQAYERNFWD [D9W], for which the protein stability index stood at 2.99.

In the case of HVGESIIWDALDWTMQAYERNFWD [L5S], the protein stability index was 1.47.

Take HVGENIIWDALDWTMQAYERNFWD [L5N]: the protein stability index was 1.93.

Take HVGETIIWDALDWTMQAYERNFWD [L5T]: the protein stability index was found to be 1.94.

On to HVGEHIIWDALDWTMQAYERNFWD [L5H], for which the protein stability index was found to be 1.56.

Consider HVGELIIWDALDWTTQAYERNFWD [M15T], for which the protein stability index is 1.05.

Take HVGELIIWDALDWTQQAYERNFWD [M15Q]: the protein stability index was found to be 2.44.

Regarding HVGELIIWDALDPTMQAYERNFWD [W13P], the protein stability index amounted to 1.52.

For the variant HVGELIIWDALDTTMQAYERNFWD [W13T], the protein stability index was determined as 1.97.

In the case of HVGELIIWDALDFTMQAYERNFWD [W13F], the protein stability index is 4.66.

For the variant HVGELIIWDALDSTMQAYERNFWD [W13S], the protein stability index was found to be 3.29.

Consider HVGELIIWDALDDTMQAYERNFWD [W13D], for which the protein stability index amounted to 2.07.

As for HVGLLIIWDALDWTMQAYERNFWD [E4L], the protein stability index came out at 2.92.

Regarding HVGSLIIWDALDWTMQAYERNFWD [E4S], the protein stability index was 2.34.

For HVGMLIIWDALDWTMQAYERNFWD [E4M], the protein stability index turned out to be 2.15.

Regarding HVGVLIIWDALDWTMQAYERNFWD [E4V], the protein stability index was 3.53.

Take HVGNLIIWDALDWTMQAYERNFWD [E4N]: the protein stability index was found to be 2.42.

Regarding HVGHLIIWDALDWTMQAYERNFWD [E4H], the protein stability index worked out at 2.13.

As to HVGPLIIWDALDWTMQAYERNFWD [E4P], the protein stability index was found to be 1.81.

Consider HVGQLIIWDALDWTMQAYERNFWD [E4Q], for which the protein stability index is 2.46.

For HVGALIIWDALDWTMQAYERNFWD [E4A], the protein stability index worked out at 2.85.

Turning to HVGELIIWDWLDWTMQAYERNFWD [A10W], the protein stability index is 3.36.

With HVGELIIWDKLDWTMQAYERNFWD [A10K], the protein stability index was determined as 1.09.

With CVGELIIWDALDWTMQAYERNFWD [H1C], the protein stability index was determined as 2.04.

For EVGELIIWDALDWTMQAYERNFWD [H1E], the protein stability index worked out at 1.27.

KVGELIIWDALDWTMQAYERNFWD [H1K]: the protein stability index was 2.73.

With LVGELIIWDALDWTMQAYERNFWD [H1L], the protein stability index came out at 2.13.

Take PVGELIIWDALDWTMQAYERNFWD [H1P]: the protein stability index was determined as 1.49.

As to QVGELIIWDALDWTMQAYERNFWD [H1Q], the protein stability index was found to be 1.9.

Turning to YVGELIIWDALDWTMQAYERNFWD [H1Y], the protein stability index came to 2.18.

Consider HVGELIIWDALDWTMQAEERNFWD [Y18E], for which the protein stability index was determined as 1.12.

HVGELIIWDALDWTMQAKERNFWD [Y18K]: the protein stability index turned out to be 2.17.

Take HVGELIIWDALDWTMQASERNFWD [Y18S]: the protein stability index was 1.07.

With HVGELIIWDALDWTMQARERNFWD [Y18R], the protein stability index was 2.81.

Consider HVGELIIWDALDWTMCAYERNFWD [Q16C], for which the protein stability index came out at 2.77.

Regarding HVGELIIWDALDWTMIAYERNFWD [Q16I], the protein stability index turned out to be 2.45.

For the variant HVGELDIWDALDWTMQAYERNFWD [I6D], the protein stability index was determined as 1.81.

With HVGELWIWDALDWTMQAYERNFWD [I6W], the protein stability index is 2.51.

In the case of HVGELRIWDALDWTMQAYERNFWD [I6R], the protein stability index worked out at 1.55.

As for HVGELHIWDALDWTMQAYERNFWD [I6H], the protein stability index is 1.59.

Regarding HVGELMIWDALDWTMQAYERNFWD [I6M], the protein stability index was found to be 2.35.

With HVGELQIWDALDWTMQAYERNFWD [I6Q], the protein stability index worked out at 1.62.

For the variant HVGELAIWDALDWTMQAYERNFWD [I6A], the protein stability index is 1.75.

As to HVGELPIWDALDWTMQAYERNFWD [I6P], the protein stability index came out at 2.41.

Regarding HVGELCIWDALDWTMQAYERNFWD [I6C], the protein stability index came to 1.47.

As to HVGELIIWDALDWQMQAYERNFWD [T14Q], the protein stability index amounted to 1.38.

For the variant HVGELIIWDALDWNMQAYERNFWD [T14N], the protein stability index is 1.42.

Take HVGELIIWDALDWPMQAYERNFWD [T14P]: the protein stability index stood at 2.28.

Consider HVGELIIWDALDWGMQAYERNFWD [T14G], for which the protein stability index amounted to 2.08.

HVGELIGWDALDWTMQAYERNFWD [I7G]: the protein stability index worked out at 1.8.

As for HVGELITWDALDWTMQAYERNFWD [I7T], the protein stability index came to 1.41.
